Measurements from the Human Domainome abundance scans (Beltran et al. 2025).
± gives the uncertainty stated by the source.

B1: Ventral anterior homeobox 1, residues 102 to 157; numbered along this chain, Q5SQQ9 (parent)
chain: RTRTSFTAEQLYRLEMEFQRCQYVVGRERTELARQLNLSETQVKVWFQNRRTKQKK

Variants of: B1
Assay: abundance fitness (aPCA) (normalised: wild type 0, dead -1); higher = more abundant; growth selection in yeast, the domain comes from the species named
Conditions: Homo sapiens

Variant	abundance fitness
T30L	-0.427 ± 0.15
K55A	0.086 ± 0.1
K55R	-0.187 ± 0.1
Y12W	0.001 ± 0.15
R50P	-1.02 ± 0.29
R50S	-0.451 ± 0.12
R50Q	-0.098 ± 0.17
R50G	-0.832 ± 0.13
R50M	-0.034 ± 0.16
E31Q	-0.347 ± 0.17
V24I	-0.086 ± 0.15
C21L	-0.377 ± 0.17
C21Y	-0.404 ± 0.28
C21P	-0.231 ± 0.41
C21R	-0.229 ± 0.17
L36K	-1.18 ± 0.42
L36C	-0.165 ± 0.16
L36R	-0.881 ± 0.13
L36T	-0.264 ± 0.17
L36M	-0.184 ± 0.18
A33V	-0.786 ± 0.17
A33H	-0.925 ± 0.38
A33R	-0.992 ± 0.18
A33S	-0.115 ± 0.12

Variant	abundance fitness
L38H	-0.854 ± 0.43
L38A	-0.253 ± 0.11
L38I	-0.307 ± 0.33
L38C	-0.186 ± 0.16
L38P	-1.02 ± 0.25
L38T	-0.411 ± 0.16
L38Q	-0.91 ± 0.2
L38F	-0.72 ± 0.39
T41A	0.032 ± 0.12
T41P	-0.152 ± 0.16
F18L	-0.927 ± 0.17
T4C	-0.165 ± 0.18
T4I	-0.193 ± 0.23
Q22H	-0.251 ± 0.24
Q22D	-0.081 ± 0.16
E9T	-0.464 ± 0.19
E9K	-0.453 ± 0.29
N37C	-0.037 ± 0.21
N37M	-0.536 ± 0.4
R34K	-0.197 ± 0.3
R34V	-0.074 ± 0.12
K53R	-0.088 ± 0.09
K53M	-0.103 ± 0.19
K53S	0.161 ± 0.17

Variant	abundance fitness
A8R	-0.332 ± 0.11
A8C	-0.212 ± 0.17
A8M	-0.104 ± 0.21
A8I	-0.363 ± 0.4
A8F	-0.473 ± 0.21
A8G	-0.205 ± 0.084
A8P	-0.049 ± 0.19
M16P	-1.12 ± 0.37
M16T	-0.076 ± 0.2
Q54W	-0.187 ± 0.11
Q54Y	-0.317 ± 0.39
Q54F	-0.284 ± 0.18
Q54G	0.005 ± 0.076
Q54E	0.11 ± 0.12
Q54A	0.018 ± 0.09
S39V	-0.488 ± 0.16
S39Y	-0.649 ± 0.34
S39T	-0.218 ± 0.17
V25C	0.114 ± 0.25
V25Q	0.121 ± 0.17
L14C	-0.518 ± 0.23
R51Q	0.049 ± 0.24
R51S	-0.201 ± 0.13
V43M	-0.838 ± 0.4

Variant	abundance fitness
Q42T	0.163 ± 0.19
Q42R	-0.223 ± 0.11
Q42M	-0.252 ± 0.19
E17K	-0.604 ± 0.3
E17V	-0.296 ± 0.15
E17I	-0.544 ± 0.37
E15Q	-1.01 ± 0.27
E15G	-0.823 ± 0.14
E15S	-0.766 ± 0.2
Q19S	-0.063 ± 0.13
Q19G	-0.133 ± 0.11
Q19Y	-0.603 ± 0.3
Q19R	-0.316 ± 0.11
F6C	-0.536 ± 0.26
F6R	-0.71 ± 0.12
F6K	-0.42 ± 0.33
F6A	-0.616 ± 0.22
F6N	-0.43 ± 0.33
R3P	0.164 ± 0.091
R3V	0.096 ± 0.094
R3D	0.326 ± 0.12
R3I	0.251 ± 0.092
L32C	-0.777 ± 0.39
L32A	-0.791 ± 0.34

Variant	abundance fitness
L32R	-0.826 ± 0.2
K44L	-0.175 ± 0.12
K44Y	-0.271 ± 0.2
K44R	-0.22 ± 0.086
N49K	-0.022 ± 0.18
N49L	-0.046 ± 0.12
N49F	-0.609 ± 0.48
K56L	-0.205 ± 0.24
K56M	-0.17 ± 0.27
K56S	0.135 ± 0.14
K56Q	-0.167 ± 0.33
T7L	-0.704 ± 0.15
T7S	-0.158 ± 0.14
T7F	-0.77 ± 0.27
T7P	-0.734 ± 0.24
E40M	-0.852 ± 0.25
E40S	-0.283 ± 0.14
R13C	-0.161 ± 0.13
R13M	-0.022 ± 0.2
R13W	-0.211 ± 0.18
W46K	-1.11 ± 0.45
W46R	-0.844 ± 0.14
W46I	-0.807 ± 0.4
R27T	0.013 ± 0.15

Variant	abundance fitness
R27E	0.167 ± 0.15
F47C	-0.743 ± 0.29
F47S	-0.762 ± 0.21
F47K	-0.885 ± 0.39
E28R	-0.596 ± 0.13
E28V	-0.419 ± 0.12
E28G	-0.39 ± 0.1
E28Q	-0.394 ± 0.19
Q35W	-0.304 ± 0.17
Q35V	-0.265 ± 0.13
Q35G	-0.182 ± 0.1
Q35E	-0.032 ± 0.17
Q35A	0.052 ± 0.13
Q35L	-0.135 ± 0.14
R20W	-0.632 ± 0.28
R20G	-0.409 ± 0.12
R20Y	-0.436 ± 0.29
G26H	-0.413 ± 0.12
G26M	-0.351 ± 0.17
G26Y	-0.342 ± 0.11
G26K	-0.15 ± 0.22
G26V	-0.577 ± 0.13
G26C	-0.547 ± 0.15
G26S	-0.151 ± 0.083

Variant	abundance fitness
L11W	-0.494 ± 0.16
L11K	-0.274 ± 0.26
R1E	-0.025 ± 0.46
R1G	-0.002 ± 0.19
T2K	-0.202 ± 0.19
T2L	-0.406 ± 0.22
T2Y	-0.335 ± 0.26
V45I	-0.3 ± 0.22
V45D	0.185 ± 0.16
V45M	-0.148 ± 0.27
V45P	-0.545 ± 0.22
V45L	0.083 ± 0.13
V45G	-0.159 ± 0.084
T52V	-0.014 ± 0.1
T52A	-0.11 ± 0.12
T52P	-0.558 ± 0.19
T52M	0.194 ± 0.18
T52Q	-0.145 ± 0.15
T52I	-0.358 ± 0.17
Q48W	-0.619 ± 0.27
Q48E	-0.193 ± 0.31
S5K	-0.747 ± 0.2
S5D	0.262 ± 0.14
